According to publication doi:10.1101/2023.10.27.564484, “Insights into Molecular Diversity within the FET Family: Unraveling Phase Separation of the N-Terminal Low Complexity Domain from RNA-Binding Protein EWS” (bioRxiv, 2023):

B1: EWS low-complexity domain (N-terminal 264 residues of RNA-binding protein EWS) [not stated] / itself (parent)
chain: GAMASTDYSTYSQAAAQQGYSAYTAQPTQGYAQTTQAYGQQSYGTYGQPTDVSYTQAQTTATYGQTAYATSYGQPPTGYTTPTAPQAYSQPVQGYGTGAYDTTTATVTTTQASYAAQSAYGTQPAYPAYGQQPAATAPTRPQDGNKPTETSQPQSSTGGYNQPSLGYGQSNYSYPQVPGSYPMQPVTAPPSYPPTSYSSTQPTSYDQSSYSQQNTYGQPSSYGQQSSYGQQSSYGQQPPTSYPPQTGSYSQAPSQYSQQSSSYGQQ

Variants of: B1
Test: pelleting assay (phase separation)
Details: with itself; 50 µM protein, 150 mM NaCl, 20 mM Tris pH 7.4; read off a plot

screen value	Variant
0.5	chain 1 Y210S
0.75	chain 1 Y174S
0.64	chain 1 Y46S
0.6	chain 1 N171S
0.81	chain 1 Y172S Y174S
